Measurements: patent US20250262210A1 (TRUSTEES OF COLUMBIA UNIVERSITY IN THE CITY OF NEW YORK, published 2025)

Assays:
Experiment in all cases: IP/MS, LZTR1 R810W-FLAG, U87
[1] = target: ALPK2 (human, UniProt Q86TB3 1-2170)
Outline: (§1)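 Extracted peptides in 3% acetonitrile/0.1% formic acid ran on a 50 cm C18 column into an Orbitrap Fusion, with MaxQuant identification and spectral counting.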

[2] = target: MTOR (human, UniProt P42345 1-2549)
Outline: as §1

[3] = target: T1, SLC4A2 (human, UniProt P04920 1-1241, limits assumed)
T1 sequence (looked up): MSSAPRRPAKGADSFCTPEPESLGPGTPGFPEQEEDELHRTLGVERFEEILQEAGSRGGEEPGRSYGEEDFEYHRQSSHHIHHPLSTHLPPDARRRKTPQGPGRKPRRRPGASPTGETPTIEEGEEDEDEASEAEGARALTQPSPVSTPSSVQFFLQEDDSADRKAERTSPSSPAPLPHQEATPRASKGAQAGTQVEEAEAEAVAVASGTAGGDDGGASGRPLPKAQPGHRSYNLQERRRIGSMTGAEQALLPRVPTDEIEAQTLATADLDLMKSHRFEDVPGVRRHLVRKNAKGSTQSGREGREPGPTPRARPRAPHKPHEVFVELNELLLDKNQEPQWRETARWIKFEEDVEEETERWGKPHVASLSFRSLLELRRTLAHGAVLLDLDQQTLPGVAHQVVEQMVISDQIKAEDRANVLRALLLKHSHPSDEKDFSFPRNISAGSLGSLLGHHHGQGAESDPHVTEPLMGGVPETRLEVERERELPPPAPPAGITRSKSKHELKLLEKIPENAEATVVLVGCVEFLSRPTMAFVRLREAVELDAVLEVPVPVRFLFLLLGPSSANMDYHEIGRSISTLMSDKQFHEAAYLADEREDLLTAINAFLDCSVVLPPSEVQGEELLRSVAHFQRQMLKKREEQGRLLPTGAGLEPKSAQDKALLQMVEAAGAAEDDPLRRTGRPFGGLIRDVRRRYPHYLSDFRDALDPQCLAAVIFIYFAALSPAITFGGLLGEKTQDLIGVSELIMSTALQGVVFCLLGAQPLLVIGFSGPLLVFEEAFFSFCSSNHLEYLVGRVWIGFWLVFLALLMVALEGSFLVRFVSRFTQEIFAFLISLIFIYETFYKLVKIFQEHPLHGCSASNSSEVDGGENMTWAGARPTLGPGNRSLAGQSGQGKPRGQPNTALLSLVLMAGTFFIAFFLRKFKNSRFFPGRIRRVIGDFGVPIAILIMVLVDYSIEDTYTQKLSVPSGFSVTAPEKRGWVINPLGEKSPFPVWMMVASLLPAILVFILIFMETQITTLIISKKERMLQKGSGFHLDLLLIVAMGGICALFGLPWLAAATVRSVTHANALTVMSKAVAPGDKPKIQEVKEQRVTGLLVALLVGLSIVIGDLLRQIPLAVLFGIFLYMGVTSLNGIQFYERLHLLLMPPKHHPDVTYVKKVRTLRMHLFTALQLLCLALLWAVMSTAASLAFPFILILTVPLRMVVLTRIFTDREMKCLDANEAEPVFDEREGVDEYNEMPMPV
Outline: as §1

[4] = target: EIF2AK4 (human, UniProt Q9P2K8 1-1649, limits assumed)
Chain of EIF2AK4 (Q9P2K8 whole entry): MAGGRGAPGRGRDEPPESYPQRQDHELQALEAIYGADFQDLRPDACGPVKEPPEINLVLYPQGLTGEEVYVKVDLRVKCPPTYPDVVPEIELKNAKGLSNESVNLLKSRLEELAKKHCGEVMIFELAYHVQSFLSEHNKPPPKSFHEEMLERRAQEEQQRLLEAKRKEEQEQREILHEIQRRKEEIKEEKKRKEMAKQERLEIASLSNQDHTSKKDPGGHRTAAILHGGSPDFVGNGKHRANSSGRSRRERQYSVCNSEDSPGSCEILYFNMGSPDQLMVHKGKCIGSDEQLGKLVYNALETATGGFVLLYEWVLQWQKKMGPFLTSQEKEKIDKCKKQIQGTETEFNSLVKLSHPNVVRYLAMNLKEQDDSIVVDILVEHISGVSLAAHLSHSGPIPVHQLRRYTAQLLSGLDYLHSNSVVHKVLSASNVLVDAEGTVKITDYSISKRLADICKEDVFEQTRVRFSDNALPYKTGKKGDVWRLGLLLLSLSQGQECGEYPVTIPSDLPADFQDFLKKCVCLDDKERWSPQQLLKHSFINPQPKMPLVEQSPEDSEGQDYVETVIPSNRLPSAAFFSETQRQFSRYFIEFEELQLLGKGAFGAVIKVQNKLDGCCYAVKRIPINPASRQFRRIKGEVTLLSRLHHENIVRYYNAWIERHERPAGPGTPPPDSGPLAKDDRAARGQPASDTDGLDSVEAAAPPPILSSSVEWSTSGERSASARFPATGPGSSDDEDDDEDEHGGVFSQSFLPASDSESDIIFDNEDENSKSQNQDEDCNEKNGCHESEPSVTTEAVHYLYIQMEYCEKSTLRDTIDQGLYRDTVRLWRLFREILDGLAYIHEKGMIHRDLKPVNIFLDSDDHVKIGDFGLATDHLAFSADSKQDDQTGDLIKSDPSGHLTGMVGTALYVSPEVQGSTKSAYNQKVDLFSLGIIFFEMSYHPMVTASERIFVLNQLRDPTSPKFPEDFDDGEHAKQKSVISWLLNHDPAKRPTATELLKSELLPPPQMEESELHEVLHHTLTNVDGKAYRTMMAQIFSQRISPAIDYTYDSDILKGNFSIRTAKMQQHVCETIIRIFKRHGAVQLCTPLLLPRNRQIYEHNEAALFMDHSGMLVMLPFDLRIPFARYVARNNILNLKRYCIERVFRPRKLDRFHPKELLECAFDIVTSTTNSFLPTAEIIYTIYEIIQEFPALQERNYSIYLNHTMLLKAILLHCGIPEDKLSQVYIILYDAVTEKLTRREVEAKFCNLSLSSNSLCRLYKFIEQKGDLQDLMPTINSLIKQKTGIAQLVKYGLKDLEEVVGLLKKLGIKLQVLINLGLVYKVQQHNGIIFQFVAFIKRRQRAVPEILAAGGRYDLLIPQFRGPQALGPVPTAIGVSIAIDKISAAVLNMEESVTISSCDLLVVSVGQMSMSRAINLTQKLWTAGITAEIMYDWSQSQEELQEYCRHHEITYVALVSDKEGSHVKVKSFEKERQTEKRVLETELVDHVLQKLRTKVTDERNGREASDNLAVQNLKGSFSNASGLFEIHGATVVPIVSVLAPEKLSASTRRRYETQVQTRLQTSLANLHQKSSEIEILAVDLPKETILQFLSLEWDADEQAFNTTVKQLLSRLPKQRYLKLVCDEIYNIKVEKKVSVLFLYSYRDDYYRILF
Outline: as §1

[5] = target: BUB1 (human, UniProt O43683 1-1085, limits assumed)
Chain of BUB1 (O43683 whole entry): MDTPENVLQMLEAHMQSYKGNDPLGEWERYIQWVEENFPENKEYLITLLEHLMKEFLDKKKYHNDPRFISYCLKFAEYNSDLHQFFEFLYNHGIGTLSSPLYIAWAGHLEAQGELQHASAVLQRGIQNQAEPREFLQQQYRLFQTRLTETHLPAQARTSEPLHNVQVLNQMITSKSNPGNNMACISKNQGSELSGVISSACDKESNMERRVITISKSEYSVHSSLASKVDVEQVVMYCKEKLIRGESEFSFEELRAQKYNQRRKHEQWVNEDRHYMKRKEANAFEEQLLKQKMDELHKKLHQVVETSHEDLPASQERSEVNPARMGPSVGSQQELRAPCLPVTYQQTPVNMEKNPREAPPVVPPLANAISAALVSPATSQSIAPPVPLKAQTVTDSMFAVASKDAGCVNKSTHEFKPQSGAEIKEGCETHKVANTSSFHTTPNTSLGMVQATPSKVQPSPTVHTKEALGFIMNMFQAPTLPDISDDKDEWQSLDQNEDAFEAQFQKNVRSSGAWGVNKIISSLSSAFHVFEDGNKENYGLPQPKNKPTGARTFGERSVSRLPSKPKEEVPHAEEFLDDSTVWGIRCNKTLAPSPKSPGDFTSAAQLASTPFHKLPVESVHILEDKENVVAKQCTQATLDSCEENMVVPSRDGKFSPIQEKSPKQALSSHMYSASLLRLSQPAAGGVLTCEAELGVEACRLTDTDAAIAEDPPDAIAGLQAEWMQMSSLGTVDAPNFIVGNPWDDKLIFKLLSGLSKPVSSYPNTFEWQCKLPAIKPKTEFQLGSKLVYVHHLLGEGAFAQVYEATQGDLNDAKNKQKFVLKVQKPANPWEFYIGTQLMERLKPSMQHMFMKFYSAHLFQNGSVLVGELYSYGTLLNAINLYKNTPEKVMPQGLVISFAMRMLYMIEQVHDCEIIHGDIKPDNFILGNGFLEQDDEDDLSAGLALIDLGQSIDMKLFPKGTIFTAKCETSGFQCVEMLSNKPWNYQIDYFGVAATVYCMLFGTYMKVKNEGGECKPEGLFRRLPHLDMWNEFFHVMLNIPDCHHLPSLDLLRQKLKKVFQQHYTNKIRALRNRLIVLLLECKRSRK
Outline: as §1

Measured: binding result

Chain of ALPK2 (Q86TB3 whole entry, the tested form may be a part): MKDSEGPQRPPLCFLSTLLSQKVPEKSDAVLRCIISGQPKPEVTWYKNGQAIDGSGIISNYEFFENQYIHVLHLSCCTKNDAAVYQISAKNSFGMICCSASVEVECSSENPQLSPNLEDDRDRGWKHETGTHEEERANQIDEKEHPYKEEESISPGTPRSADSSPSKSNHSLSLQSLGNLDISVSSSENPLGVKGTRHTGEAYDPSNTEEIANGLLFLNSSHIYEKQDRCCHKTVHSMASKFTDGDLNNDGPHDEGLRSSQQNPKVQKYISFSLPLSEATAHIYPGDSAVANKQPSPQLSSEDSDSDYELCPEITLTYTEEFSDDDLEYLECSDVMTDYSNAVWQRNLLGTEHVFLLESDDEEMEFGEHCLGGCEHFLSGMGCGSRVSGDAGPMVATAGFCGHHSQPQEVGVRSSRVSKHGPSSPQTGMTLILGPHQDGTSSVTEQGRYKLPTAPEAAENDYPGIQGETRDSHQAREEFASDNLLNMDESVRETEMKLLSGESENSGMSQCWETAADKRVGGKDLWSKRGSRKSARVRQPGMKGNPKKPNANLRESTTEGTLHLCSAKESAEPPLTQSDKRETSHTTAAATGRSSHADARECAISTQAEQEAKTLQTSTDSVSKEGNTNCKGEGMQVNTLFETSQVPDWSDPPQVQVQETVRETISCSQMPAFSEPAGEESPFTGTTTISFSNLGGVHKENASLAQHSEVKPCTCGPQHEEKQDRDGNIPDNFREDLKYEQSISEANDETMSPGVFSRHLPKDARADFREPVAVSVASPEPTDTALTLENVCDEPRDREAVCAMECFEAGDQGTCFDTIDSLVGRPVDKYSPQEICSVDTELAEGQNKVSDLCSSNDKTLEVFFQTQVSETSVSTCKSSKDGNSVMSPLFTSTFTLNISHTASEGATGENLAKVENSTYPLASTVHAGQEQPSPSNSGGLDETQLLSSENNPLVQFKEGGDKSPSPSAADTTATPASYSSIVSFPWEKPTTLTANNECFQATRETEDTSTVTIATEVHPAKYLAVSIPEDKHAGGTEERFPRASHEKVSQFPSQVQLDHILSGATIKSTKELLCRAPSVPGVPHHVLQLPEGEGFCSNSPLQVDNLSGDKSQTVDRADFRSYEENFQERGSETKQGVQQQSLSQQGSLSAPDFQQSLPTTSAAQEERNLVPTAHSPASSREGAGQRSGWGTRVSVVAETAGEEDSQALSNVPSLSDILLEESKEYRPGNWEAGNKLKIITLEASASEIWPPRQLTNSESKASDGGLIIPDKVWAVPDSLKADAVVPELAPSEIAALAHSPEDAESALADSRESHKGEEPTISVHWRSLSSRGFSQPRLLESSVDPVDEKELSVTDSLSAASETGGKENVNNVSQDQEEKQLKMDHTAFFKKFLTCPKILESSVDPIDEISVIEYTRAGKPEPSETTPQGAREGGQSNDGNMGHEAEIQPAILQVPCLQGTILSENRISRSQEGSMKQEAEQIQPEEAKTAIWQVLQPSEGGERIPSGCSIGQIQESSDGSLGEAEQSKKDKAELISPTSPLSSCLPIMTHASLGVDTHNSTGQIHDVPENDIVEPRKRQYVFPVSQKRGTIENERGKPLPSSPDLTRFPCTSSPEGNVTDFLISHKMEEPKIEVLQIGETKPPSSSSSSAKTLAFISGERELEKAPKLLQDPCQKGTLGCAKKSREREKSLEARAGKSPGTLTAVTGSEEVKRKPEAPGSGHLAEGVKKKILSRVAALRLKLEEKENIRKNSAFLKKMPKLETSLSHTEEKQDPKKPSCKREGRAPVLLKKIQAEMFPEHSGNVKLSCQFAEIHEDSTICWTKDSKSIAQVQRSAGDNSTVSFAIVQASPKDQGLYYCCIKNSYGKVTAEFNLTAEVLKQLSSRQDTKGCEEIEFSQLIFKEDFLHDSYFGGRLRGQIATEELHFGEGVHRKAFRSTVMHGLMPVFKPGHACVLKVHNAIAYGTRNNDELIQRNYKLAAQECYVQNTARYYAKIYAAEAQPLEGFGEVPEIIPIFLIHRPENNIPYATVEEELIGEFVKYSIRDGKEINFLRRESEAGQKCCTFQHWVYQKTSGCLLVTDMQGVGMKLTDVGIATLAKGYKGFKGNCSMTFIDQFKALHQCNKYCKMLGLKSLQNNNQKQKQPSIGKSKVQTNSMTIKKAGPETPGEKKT

B1: LZTR1 R810W-FLAG (other, human, UniProt Q8N653 1-840, looked up)
chain: MAGPGSTGGQIGAAALAGGARSKVAPSVDFDHSCSDSVEYLTLNFGPFETVHRWRRLPPCDEFVGARRSKHTVVAYKDAIYVFGGDNGKTMLNDLLRFDVKDCSWCRAFTTGTPPAPRYHHSAVVYGSSMFVFGGYTGDIYSNSNLKNKNDLFEYKFATGQWTEWKIEGRLPVARSAHGATVYSDKLWIFAGYDGNARLNDMWTIGLQDRELTCWEEVAQSGEIPPSCCNFPVAVCRDKMFVFSGQSGAKITNNLFQFEFKDKTWTRIPTEHLLRGSPPPPQRRYGHTMVAFDRHLYVFGGAADNTLPNELHCYDVDFQTWEVVQPSSDSEVGGAEVPERACASEEVPTLTYEERVGFKKSRDVFGLDFGTTSAKQPTQPASELPSGRLFHAAAVISDAMYIFGGTVDNNIRSGEMYRFQFSCYPKCTLHEDYGRLWESRQFCDVEFVLGEKEECVQGHVAIVTARSRWLRRKITQARERLAQKLEQEAAPVPREAPGVAAGGARPPLLHVAIREAEARPFEVLMQFLYTDKIKYPRKGHVEDVLLIMDVYKLALSFQLCRLEQLCRQYIEASVDLQNVLVVCESAARLQLSQLKEHCLNFVVKESHFNQVIMMKEFERLSSPLIVEIVRRKQQPPPRTPLDQPVDIGTSLIQDMKAYLEGAGAEFCDITLLLDGHPRPAHKAILAARSSYFEAMFRSFMPEDGQVNISIGEMVPSRQAFESMLRYIYYGEVNMPPEDSLYLFAAPYYYGFYNNRLQAYCKQNLEMNVTVQNVLQILEAADKTQALDMKRHCLHIIVHQFTKVSKLPTLWSLSQQLLLDIIDSLASHISDKQCAELGADI
notes: Stably expressed in U87 cells by lentivirus; also called LZTR1-FLAG-R810W; LZTR1 RW; not shown: FLAG tag
binds: [1] | [2] | [3] | [4] | [5]
